Reference: the DeepSol protein solubility set

Assay: soluble on expression in E. coli; label from the status in PepcDB or PDB records

| Sequence | soluble on expression in E. coli |
| --- | --- |
| MVAAGDINVRVTSMDSELEFAIQSSTTGKQLFDQVVKTIGLREIWYFGLQYTDNKGFPTWLKLNKKVLSQDVKKDPTLVFKFRAKFYPEDVAEEIIQDVTMRLFYLQVKDGILSDEIYCPPETSVLLASYAMQAKYGDYVPETHVAGCLTADRLLPQRVLGQFKLNSEEWERRIMTWWADHRATTREQAMLEYLKIAQDLEMYGVNYFEIRNKKGTDLYLGVDALGLNIYDKADRLSPKVGFPWSEIRNISFNDKKFVIKPIDKKAHDFVFYAPRLRINKRILALCMGNHELYMRRRKPDTIEVQQMKQQAREDRALKIAEQEKLTREMSAREEAEQRQRDAEKRMAQMQEDMERARLELAEAHNTIHSLEAQLKQLQLAKQALEQKEYELRELTAQLQSEKAMSDGERRHLRDQVDAREREVFSMREEVERQTTVTRQLQTQIHSQQHTQHYSNSHHVSNGHAHDETATDDEDNGATELTNDADQNVPQHELERVTAAEKNIQIKNKLDMLTRELDSVKDQNAVTDYDVLHMENKKAGRDKYKTLRQIRGGNTKRRIDQYENM | not soluble |
| MVADRFSHVRGWVFDLDNTLYPPSARLFDQIERRMTDWVMTELRVVREEADRLRRHYWSTYGTTLAGLMAEHGVDPAPYLSHVHDISLDHLERDMILAARIRALPGRKIVYTNGCAPYAERVLEARGLANLFDAVYGVEHAGFRPKPDRAAFETVFAADRLAPGTAAMFEDDSRNLLAPHEMGMRTVHVAPEALPAPHIHHHTLDLSEFLALLQP | not soluble |
| MVADSQPGHIDQIKQTNAGAVYRLIDQLGPVSRIDLSRLAQLAPASITKIVREMLEAHLVQELEIKEAGSRGRPAVGLMVETEAWHYLSIRISRGEIFLALRDLSSKLVVEECLPLPLTEATPLLERIITHVDRFFTRHQQKLERLTSIAITLPGIIDTENGVVHRMPYYEDVKEMPLGDSLERHTGVPVYIQHDISAWTMAEALFGASRGARDVIQVVIDHNVGAGVITDGHLLHAGSSSLVEIGHTQVDPYGKRCYCGNHGCLETIASVDSVLELTQLRLNQSMSSMLHGQPLTVDSLCQAAMQGDLLAKDIISGVGAHVGRILAIMVNLFNPQKILIGSPLSKAADILFPAIADSIRQQALPAYSRNTVVESTQFTNQGTMAGAALVKDAMYNGSLLIRLLQG | not soluble |
| MVAIIFDMDGVLYRGNRAIPGVRELIEFLKERGIPFAFLTNNSTKTPEMYREKLLKMGIDVSSSIIITSGLATRLYMSKHLDPGKIFVIGGEGLVKEMQALGWGIVTLDEARQGSWKEVKHVVVGLDPDLTYEKLKYATLAIRNGATFIGTNPDATLPGEEGIYPGAGSIIAALKVATNVEPIIIGKPNEPMYEVVREMFPGEELWMVGDRLDTDIAFAKKFGMKAIMVLTGVSSLEDIKKSEYKPDLVLPSVYELIDYLKTL | soluble |
| MVAQSKILLYYKFTPIADPKAMMLWQRDMCELLGLKGRILISEHGINGTVGGDMDACKRYVRKMREYPGFRGTEFKWSDGGAEDFPKLSVKVRDEIVAFGAPGELKVDEKGVIGGGVHLKPEEVNKLVEERGDDVVFFDGRNAMEAQIGKFKNAVVPDVRTTHDFIRELESGKYDWMKDKPVVSYCTGGIRCEILSSLMKNRGFKEIYQIDGGIVRYGEKYGNDGLWEGSLYVFDRRMHMEFGNGVQDPGFIQLGHCVQCGAPTNKFEHCINEDECRELVLMCPDCYENPATRNCGREHCKEVAAEAAAAAAVLEHHHHHH | soluble |
| MVATEKKFTLRHIFKNVSQLEDGKYLYSPDEDHFNVDWNMSISHKKEKLGVYFYCYKSEESASAWSIDTEYDLALKNSSGKRISIDFKYKFSTSTGFGTAELVSWDAMIKDYLIDDVIIMEATVKIINLMGIPKKTLRTFDESNEEFSDVILTVEDEKFYVLKQFLASHSSHFKTLFLRKCEEEAEKSEYTLQDINSIDFQNLLEVLHGEPAIDEETVQGIRDLADKYDMPFPTRKCEEFLIDLSEKSIKEKLKIAKQFQLEKLKMHCLSKIETVDHIKAAMTGDPIEMDLSVLAALLGKSLALH | not soluble |
| MVDIEIWLRLMSISSLYGDDMVRIAHWLAKQSHIDAVVLQQTGLTLRQAQRFLSFPRKSIESSLCWLEQPNHHLIPADSEFYPPQLQATTDYPGALFVEGELHALHSFQLAVVGSRAHSWYGERWGRLFCETLATCGVTITSGLARGIDGVVHKAALQVNGVSIAVLGNGLNTIHPRRHARLAASLFEQGGALVSEFPLDVPPLAYNFPRRNRIISGLSKGVLVVEAALRSGSLVTARCALEQGREVFALPGPIGNPGSEGPHWLIKQGAILVTEPEEILENLQFGLHWLPDAPENSFYSPDQQDVALPFPELLANVGDEVTPVDVVAERAGQPVPEVVTQLLELELAGWIAAVPGGYVRLRRACHVRRTNVFV | not soluble |
| MVDNVLAILRMGDELADLAVDLFDGVTDPTGIAPATTRIVARAEELLSARGNGRDDIRIACGPGCMTCCTVNVSVLVPEAWTIAVWLRQHHDAGEVDRLAVRLTAAARAIRWLDDADRIRSGVTCPFLDERGWCSIHPVRPLMCRALTSTDPAQCRRALESRTSDEEVPLECNLLQKYLMEQAYRSLAAALERRGIDSAGRELVGTVARFLNEPWLADKFLVGRLITLPESLEHHHHHH | not soluble |
| MVDQGILRLRQKDASLEFGPPRRRTTVVNWYQERHGTRLTKPEWPLAFVCRNPGTCLQIELVTVMII | not soluble |
| MVDQQDTFAEYFKNWYIFYKKPKVSKVTLNRYQYTYNVINEYFGNKLLKDITRANYQKFIVKYGQNHSPNTMKMINNCIKACVKNAVYDEEIKKDFTYNIELISNRDNVVQLEHHHHHH | soluble |
| MVERLEALFDALAELTGQRNAIDAKIVQIVAEIDRDGLWGATGARSISALVAWKTGASERNAKAIAAVAHRAEEFPRCVQGLGAGRLSLDQVGVIAEGAADGSDEHYAALASVATVSQLRKAISLEPKPEPEPKPDPRRSIRTNPGDGYTTYHITLPRLEAAKFDTALEASHEGLIARWEREQDPGDPAVPMPDLVDAFMALVETGWDREATRRPHGQHTAVAVHVDLKSKVAALHLGPLLGDDERRLLTCDATCEVWFELRGRVIGTGRATRTVNRRLRRALEHRDRCCVVPGCSATRGLHAHHLVHWEDGGLTEMANLVLLCPYHHRAHHRGLITITGPADQLTVTDDRGRLLTNQSLARTPLEHHHHHH | soluble |
| MVEVRYLGHSAVLLTDGKTRIVIDPFLTGNPMAALGVGEVQADLILVTHAHGDHFGDSVALSKKGGVVVSTFEIATYAEKHGAKSVPMNLGGTYRFEGGWLKWVPAWHSSSFPDGTYGGMPMGVVVELGGKRIYHAGDTALFSDMRLIGEMGLDLALLPIGDHFTMGPEDALKALELLRPKKVVPIHYNTFPPIRQDGEAFAQRAREKGVEGHALKPGEVLRLD | soluble |
| MVFDPRTLDNPKEISAYRDQRYQGTVRDQETALRTSCTLYVGNLSYYTKEDQVYELFGRAGDVRRVIMGLDRFKKTPCGFCFVEYYTREDAELALQNISNTRMDDRVIRADWDAGFIEGRQYGRGKHGGQVRDEYRKDYDPERGGYNRAIAQKG | not soluble |
| MVFGFTKRDRRVPDLSRYDYYYQNHEDYNKSPQLSAAAASAASAASPDRTNYSRSHSLVSHAPSIPRQRSSVKSPGRRLSTSSAAPPTSRAAAKQYSQKTYSLRSQRSGEYHLHPPGYTTNGSRMNSMTSGANVRRNYGKNKSTAGNNNDSRANSITVKTTQVTDPSGRTQSITKKTIRKINGYEYVETTTTTKNLVPLGDSQRHFDEFSENYMLQDDDILEEQASDNIHDIIEENETDNEKPYSPVSESHLQDDSELNVEKPDFPLGSYFHHKYSTDVMPLEEESSLSNFSDALDYIPPTHQTSSKYIHNKRKQASTTRRKKRPPAVKNAEAEAKKPLTEAEMYLKALEVAKRNVYHTDAASDNASAPLGSNKSRKSRMGQKMTLRSSSDSPTATANLVKSNVEVQPKRFTSSFFSRNTKSAPHEVHNHSVSTHFKSNKAVDPVPEPKSANTGLTDKEMYDQALKIAQARYYNSHGIQPEAVDNSTTAAKPRQVGVSHLGSTGSIPPNEQHYLGDSEIPVQSEVHEYEPIPLQKTKTTGSSKNKFKTMFDKVLQFSQENYGYQHKKEQGEQTPVTRNAEESFPAASISEGVTTAKPSSNEGVMTNPVVTDSPSPLQQQIDSTTASSNGQSQGNVPTSAVASTTRTRSPELQDNLKSSSSLLQDQTPQRQEDATDPTTSSTNELSAAEPTMVTSTHATKTIQAQTQDPPTKHKKSSFFTKLFKKKSSR | soluble |
| MVGAHQMKSEEQANMQLQQQAVLGLNWMQDSGEYKALAYQAYNAAKVAFDHAKVAKGKKKAVVADLDETMLDNSPYAGWQVQNNKPFDGKDWTRWVDARQSRAVPGAVEFNNYVNSHKGKVFYVTNRKDSSEKAGTIDDMKRLGFNGVEESAFYLKKDKSAKAARFAEIEKQGYEIVLYVGDNLDDFGNTVYGKLNADRRAFVDQNQGKFGKTFIMLPNANYGGWEGGLAEGYFKKDTQGQIKARLDAVQAWDGK | soluble |
| MVGNMNREALFKTLTTGYLHFWSLSRKKLWLKGETSGNFQIIEEFKVDCDADAVLFKVTSLGPICHTGNYTCFYRSYDELVNSKS | soluble |
| MVHNFRNDITVDWCPGCGDFGILTALTSALSELNLGSHDVAIISGIGCSGKTPHYVNAAGAHTLHGRAIPVAVGVKLTNPHLKVIVTGGDGDLMSIGAGHLVAEGRRNSGITVLMYDNAVYGLTKGQAAPTLKLGVQTKSLARPNIYDAINPIMLAISSGYSFVARGFSFEIAHLKNIIKQAIMFPGSSFIDILQPCPTYNNINTMDWYKKRVYKLDDDKSWDPVITENDPKAEEKYNKAIEKSFEWGDKIPIGVFYVNKKVPPFTERLKQYVDNYEQIPPAVQDVSTEDGKPILDPFETFKDKI | not soluble |
| MVHTPLNFKFSEKREEWNLRFCRNVGVSIVELVTADASSAYVRGLMAVNGSKVYSILPFISIDAEKAKKAKFPEDRMSGVRGKVIPSVLPEIKGETILDIGCGFGTLTMELAKNNPESQVYGIDLHDSLTGQAEMNAEVLGLPNVEFRTGSAYALPFEKDSIDAVTCFLMLHHLEDIKFALFEIKRVLKKGGSLTAVEPLAHQHHHGPQLSEAEWKELFEEAGFGTETENMEGAVVLRAVKRELEHHHHHH | not soluble |
| MVKDLSDMSLKELWQLFPIFLVEHKEEWEDWYEEEKERLLHLLPSQSIKSISHIGSTAVPDIWAKNIVDILLEVPEKEDLQDFKKRLLDAGYLLMSEGEKRLSFNKGYTKDGFAEKVFHLHLRYQGDNDELYFRDYLREYPEVAKDYERLKLGLWEKYEHNRDAYTDAKSDFIRKYTQKAKKNDKGKDN | not soluble |
| MVKGDITTAFIAEEYPDGFQGAVLDEPTLRRVAAAAAAMNRVAEIRRTRISGTMNNHERHVGVDWVVALQGESYHVSIAADREGSTVSFSDGSSLRVTSDWTPGQPLEHHHHHH | not soluble |
| MVKGRIHSVESCGTVDGPGIRYVIFTQGCLLRCQYCHNADTWEIGKGKEITVEEVMQDVTCYLPFIEASGGGITVSGGEPLLQLDFLIELFKKCKAAGIHTTIDSSGGCYSEEPEFRNKLDILMDYTDLVLLDLKHIDSKKHRKLTGKPNEHILQFARYLSDKNKPIWVRHVLVPGVTDNEEDLQKLSSFIQSLSNVQKVEVLPYHKLGVYKWEALGHKYPLANVEPPTEKNVEHAKYILQAV | not soluble |
